Test in all cases: cell-based or functional assay
For test [1], the target named is HER2 (human epidermal growth factor 2) on HER2 overexpressing tumor cell lines (human) (UniProt P04626).
Test [2] addresses endogenous CD16 on non-transduced (NT) placental NK cells (human) (UniProt P08637).
Test [3] has as its target Construct #10 (176 V (also referred to as 158 V); 197 Serine (S)), without Myc tag (human) (UniProt P08637).
The target of test [4] is CD16VS (construct #5: 176 V; SCRAMBLED original sequence), without Myc tag (human) (UniProt P08637).
In test [5] the target is Construct #1 (176 V; 197 Glycine (G)), without Myc tag (human) (UniProt P08637).
The target of test [6] is high affinity (158 Val) and proteinase cleavage resistant (197Pro) CD16 variant (CD16VP) (human) (UniProt P08637).

Sequence of Avelumab (anti-PD-L1 antibody) (HC): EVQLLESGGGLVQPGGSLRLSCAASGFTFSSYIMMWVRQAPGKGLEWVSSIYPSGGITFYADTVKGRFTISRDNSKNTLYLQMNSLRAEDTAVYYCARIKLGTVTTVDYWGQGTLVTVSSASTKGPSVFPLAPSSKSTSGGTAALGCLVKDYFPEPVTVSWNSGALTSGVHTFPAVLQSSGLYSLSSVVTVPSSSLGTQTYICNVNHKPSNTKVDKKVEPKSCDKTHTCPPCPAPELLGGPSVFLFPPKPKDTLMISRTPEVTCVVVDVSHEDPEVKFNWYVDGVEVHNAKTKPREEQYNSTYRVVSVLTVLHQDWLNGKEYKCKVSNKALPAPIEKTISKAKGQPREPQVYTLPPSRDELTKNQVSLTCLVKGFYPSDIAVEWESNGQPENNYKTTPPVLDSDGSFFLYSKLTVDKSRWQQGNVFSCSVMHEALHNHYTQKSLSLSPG
Sequence of Avelumab (anti-PD-L1 antibody) (LC): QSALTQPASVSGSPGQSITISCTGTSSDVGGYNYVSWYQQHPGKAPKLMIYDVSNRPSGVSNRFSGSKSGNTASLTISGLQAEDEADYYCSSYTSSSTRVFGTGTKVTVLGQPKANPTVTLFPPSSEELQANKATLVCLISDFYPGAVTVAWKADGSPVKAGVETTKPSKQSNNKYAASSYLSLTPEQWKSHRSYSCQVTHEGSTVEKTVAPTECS

For “Ultra-LEAF purified human IgG1 isotype control recombinant antibody”, in test [1], the lysis of NCI-N87 cells by CYNK-101 cells (n=7 donors) in the presence of IgG control, 24 h, E:T 0.6:1, xCELLigence was found to be 7.5% and the lysis of OE19 cells by CYNK-101 cells (n=7 donors) in the presence of IgG control, 24 h, E:T 0.6:1, xCELLigence stood at 14.7%.

Substance “metalloprotease ADAM17 (from UniProt P78536 215-824) (enzyme)” yielded a CD16 shedding after 2 h PMAi, control sample in test [2] of 60%. This substance also yielded a CD16 shedding percentage post 2 h PMAi stimulation, NT CYNK cells in test [2] of 74.7%. Besides, the CD16 shedding percentage post 2 h PMAi stimulation, transduced CYNK cells (n=6 donors) turned out to be 1.8% in test [3], 0.6% in test [4], 9.4% in test [5] and 4.3% in test [6]. In test [6], this substance gave a CD16 shedding after PMA/ionomycin activation, flow cytometry, PNK-CD16VP cells of under 11%.

As to Daratumumab (anti-CD38) (antibody), in test [2], the cytotoxicity (ADCC) of NT cells against Daratumumab opsonized Daudi cells, E:T 10:1 (n=5) stood at 25%; the cytotoxicity (ADCC) of NT cells against Daratumumab opsonized HS-Sultan cells, E:T 10:1 (n=3) was 21%; the cytotoxicity (ADCC) of NT cells against Daratumumab opsonized Sudh16 cells, E:T 10:1 (n=3) is 16%. Besides, in test [6], the cytotoxicity (ADCC) of PNK-CD16VP cells against Daratumumab opsonized Daudi cells, E:T 10:1 (n=5) was determined as 47%; the cytotoxicity (ADCC) of PNK-CD16VP cells against Daratumumab opsonized HS-Sultan cells, E:T 10:1 (n=3) was determined as 30%; the cytotoxicity (ADCC) of PNK-CD16VP cells against Daratumumab opsonized Sudh16 cells, E:T 10:1 (n=3) was 30%.

Take Avelumab (anti-PD-L1 antibody): in test [4], the cytolysis of 5637, T-24, RT-112 and NCI-H1975 tumor cell lines by PT-CD16VS cells with Avelumab, 24 hours, 5:1 E:T ratio stood at 100%; the cytolysis of MDA-MB-231 by PT-CD16VS cells with Avelumab, 12 hours, 5:1 E:T ratio turned out to be 70%.

For the origin of these results see patent publication US20250295776A1, “CLEAVAGE RESISTANT CD16 CONSTRUCTS AND USES THEREOF” (Celularity Inc., priority 2022, published 2025).
